Experimental findings from US20240317859A1 (published 2024) are described below.

Assay [1] deals with T1, FcγRIIB/C (CD32b/c) (FcγRIIB) (R&D Systems) (UniProt P31994 46-217).
T1 chain: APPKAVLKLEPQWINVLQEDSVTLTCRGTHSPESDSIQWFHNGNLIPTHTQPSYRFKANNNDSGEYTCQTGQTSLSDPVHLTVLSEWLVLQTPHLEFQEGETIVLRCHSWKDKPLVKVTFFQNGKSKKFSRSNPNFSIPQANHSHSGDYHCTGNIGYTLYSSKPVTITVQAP
Briefly: SPR.

The target of assay [2] is Fc gamma RIIIA/CD16a, CF (FcγRIIIA(V158)) (R&D Systems). The experiment in a line: SPR.
Chain of Fc gamma RIIIA/CD16a, CF (FcγRIIIA(V158)) (R&D Systems) (chain, as listed by the source): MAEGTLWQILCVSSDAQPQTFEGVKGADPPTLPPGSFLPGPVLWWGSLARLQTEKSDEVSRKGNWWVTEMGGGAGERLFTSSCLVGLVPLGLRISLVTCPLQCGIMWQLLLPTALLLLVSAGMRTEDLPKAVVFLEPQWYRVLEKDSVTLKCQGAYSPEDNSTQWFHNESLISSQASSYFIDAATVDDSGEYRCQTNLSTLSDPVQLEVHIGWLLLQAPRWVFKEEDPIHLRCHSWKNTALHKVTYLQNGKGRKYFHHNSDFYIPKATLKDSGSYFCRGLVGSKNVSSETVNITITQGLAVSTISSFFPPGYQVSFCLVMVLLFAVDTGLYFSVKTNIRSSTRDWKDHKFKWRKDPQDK

B1: X3-KS-DF HM242-D3 (antibody)
chain 1: QVQLVQSGPEVKKPGASVKVVCKASGYTFTSYYIQWVRQVPGQGLEWMGWIYPGDGTTKYNEKFKGRVTMTIDTSTSTAYMELRSLRSDDTAVYYCASYYGSYFDYWGQGTLVTVSSASTKGPSVFPLAPSSKSTSGGTAALGCLVKDYFPEPVTVSWNSGALTSGVHTFPAVLQSSGLYSLSSVVTVPSSSLGTQTYICNVNHKPSNTKVDKKVEPKSCDKTHTCPPCPAPELLGGPDVFLFPPKPKDTLMISRTPEVTCVVVDVGDEDPEVKFNWYVDGVEVHNAKTKPREEQYNSTYRVVSVLTVLHQDWLNGKEYKCAVSNKALPAPIEKTISKAKGQPREPQVYTLPPSRDELTKNQVSLTCLVKGFYPSDIAVEWESNGQPENNYKTTPPVLDSDGSFFLYSKLTVDKSRWQQGNVFSCSVMHEALHNHYTQKSLSLSPGK
chain 2: not shown
For B1, the dissociation constant (Kd) in assay [1] came to 2540 nM.

B2: X3-KL HM268-K8 (antibody)
chain 1: QVQLVQSGPEVKKPGASVKVVCKTSGYTFTSYYIQWLKQRPGQGLEWIGWIYFGDASTKYNEKFKGRVTMTADKSTSTAYMELRSLRSDDTAVYYCASYYGSYFDYWGQGTTVTVSSASTKGPSVFPLAPSSKSTSGGTAALGCLVKDYFPEPVTVSWNSGALTSGVHTFPAVLQSSGLYSLSSVVTVPSSSLGTQTYICNVNHKPSNTKVDKKVEPKSCDKTHTCPPCPAPELLGGPDVFLFPPKPKDTLMISRTPEVTCVVVDVSDEDPEVKFNWYVDGVEVHNAKTKPREEQYNSTYRVVSVLTVLHQDWLNGKEYKCAVSNKAYPAPIEKTISKAKGQPREPQVYTLPPSRDELTKNQVSLTCLVKGFYPSDIAVEWESNGQPENNYKTTPPVLDSDGSFFLYSKLTVDKSRWQQGNVFSCSVMHEALHNHYTQKSLSLSPGK
chain 2: DIQMTQSPSSLSASVGDRVTITCRASQDISNYLNWYQQKPDGTVKLLIYSTSRLHSGVPSRFSGSGSGTDYTLTISSLQPEDFATYYCQQGSTLPFTFGQGTKLEIKRTVAAPSVFIFPPSDEQLKSGTASVVCLLNNFYPREAKVQWKVDNALQSGNSQESVTEQDSKDSTYSLSSTLTLSKADYEKHKVYACEVTHQGLSSPVTKSFNRGEC
Turning to B2, the Kd came to 736 nM in assay [1] and 1250 nM in assay [2].

B3: X3-KSL HM268-K8 (antibody)
chain 1: QVQLVQSGPEVKKPGASVKVVCKTSGYTFTSYYIQWLKQRPGQGLEWIGWIYFGDASTKYNEKFKGRVTMTADKSTSTAYMELRSLRSDDTAVYYCASYYGSYFDYWGQGTTVTVSSASTKGPSVFPLAPSSKSTSGGTAALGCLVKDYFPEPVTVSWNSGALTSGVHTFPAVLQSSGLYSLSSVVTVPSSSLGTQTYICNVNHKPSNTKVDKKVEPKSCDKTHTCPPCPAPELLGGPDVFLFPPKPKDTLMISRTPEVTCVVVDVGDEDPEVKFNWYVDGVEVHNAKTKPREEQYNSTYRVVSVLTVLHQDWLNGKEYKCAVSNKAYPAPIEKTISKAKGQPREPQVYTLPPSRDELTKNQVSLTCLVKGFYPSDIAVEWESNGQPENNYKTTPPVLDSDGSFFLYSKLTVDKSRWQQGNVFSCSVMHEALHNHYTQKSLSLSPGK
chain 2: DIQMTQSPSSLSASVGDRVTITCRASQDISNYLNWYQQKPDGTVKLLIYSTSRLHSGVPSRFSGSGSGTDYTLTISSLQPEDFATYYCQQGSTLPFTFGQGTKLEIKRTVAAPSVFIFPPSDEQLKSGTASVVCLLNNFYPREAKVQWKVDNALQSGNSQESVTEQDSKDSTYSLSSTLTLSKADYEKHKVYACEVTHQGLSSPVTKSFNRGEC
Consider B3, for which the results for the Kd in assay [1] and in assay [2] were 1240 nM and 3460 nM, respectively.

B4: X3-KI HM268-K8 (antibody)
chain 1: QVQLVQSGPEVKKPGASVKVVCKTSGYTFTSYYIQWLKQRPGQGLEWIGWIYFGDASTKYNEKFKGRVTMTADKSTSTAYMELRSLRSDDTAVYYCASYYGSYFDYWGQGTTVTVSSASTKGPSVFPLAPSSKSTSGGTAALGCLVKDYFPEPVTVSWNSGALTSGVHTFPAVLQSSGLYSLSSVVTVPSSSLGTQTYICNVNHKPSNTKVDKKVEPKSCDKTHTCPPCPAPELLGGPDVFLFPPKPKDTLMISRTPEVTCVVVDVSDEDPEVKFNWYVDGVEVHNAKTKPREEQYNSTYRVVSVLTVLHQDWLNGKEYKCAVSNKALPAPEEKTISKAKGQPREPQVYTLPPSRDELTKNQVSLTCLVKGFYPSDIAVEWESNGQPENNYKTTPPVLDSDGSFFLYSKLTVDKSRWQQGNVFSCSVMHEALHNHYTQKSLSLSPGK
chain 2: DIQMTQSPSSLSASVGDRVTITCRASQDISNYLNWYQQKPDGTVKLLIYSTSRLHSGVPSRFSGSGSGTDYTLTISSLQPEDFATYYCQQGSTLPFTFGQGTKLEIKRTVAAPSVFIFPPSDEQLKSGTASVVCLLNNFYPREAKVQWKVDNALQSGNSQESVTEQDSKDSTYSLSSTLTLSKADYEKHKVYACEVTHQGLSSPVTKSFNRGEC
As to B4, the results for the Kd in assay [1] and in assay [2] were 689 nM and 162 nM, respectively.

B5: X3-K HM268-K8 (antibody)
chain 1: QVQLVQSGPEVKKPGASVKVVCKTSGYTFTSYYIQWLKQRPGQGLEWIGWIYFGDASTKYNEKFKGRVTMTADKSTSTAYMELRSLRSDDTAVYYCASYYGSYFDYWGQGTTVTVSSASTKGPSVFPLAPSSKSTSGGTAALGCLVKDYFPEPVTVSWNSGALTSGVHTFPAVLQSSGLYSLSSVVTVPSSSLGTQTYICNVNHKPSNTKVDKKVEPKSCDKTHTCPPCPAPELLGGPDVFLFPPKPKDTLMISRTPEVTCVVVDVSDEDPEVKFNWYVDGVEVHNAKTKPREEQYNSTYRVVSVLTVLHQDWLNGKEYKCAVSNKALPAPIEKTISKAKGQPREPQVYTLPPSRDELTKNQVSLTCLVKGFYPSDIAVEWESNGQPENNYKTTPPVLDSDGSFFLYSKLTVDKSRWQQGNVFSCSVMHEALHNHYTQKSLSLSPGK
chain 2: DIQMTQSPSSLSASVGDRVTITCRASQDISNYLNWYQQKPDGTVKLLIYSTSRLHSGVPSRFSGSGSGTDYTLTISSLQPEDFATYYCQQGSTLPFTFGQGTKLEIKRTVAAPSVFIFPPSDEQLKSGTASVVCLLNNFYPREAKVQWKVDNALQSGNSQESVTEQDSKDSTYSLSSTLTLSKADYEKHKVYACEVTHQGLSSPVTKSFNRGEC
With B5, the Kd in assay [1] was 1380 nM; in assay [2], 370 nM.

B6: X3-KS-DF HM268-K8 (antibody)
chain 1: QVQLVQSGPEVKKPGASVKVVCKTSGYTFTSYYIQWLKQRPGQGLEWIGWIYFGDASTKYNEKFKGRVTMTADKSTSTAYMELRSLRSDDTAVYYCASYYGSYFDYWGQGTTVTVSSASTKGPSVFPLAPSSKSTSGGTAALGCLVKDYFPEPVTVSWNSGALTSGVHTFPAVLQSSGLYSLSSVVTVPSSSLGTQTYICNVNHKPSNTKVDKKVEPKSCDKTHTCPPCPAPELLGGPDVFLFPPKPKDTLMISRTPEVTCVVVDVGDEDPEVKFNWYVDGVEVHNAKTKPREEQYNSTYRVVSVLTVLHQDWLNGKEYKCAVSNKALPAPIEKTISKAKGQPREPQVYTLPPSRDELTKNQVSLTCLVKGFYPSDIAVEWESNGQPENNYKTTPPVLDSDGSFFLYSKLTVDKSRWQQGNVFSCSVMHEALHNHYTQKSLSLSPGK
chain 2: DIQMTQSPSSLSASVGDRVTITCRASQDISNYLNWYQQKPDGTVKLLIYSTSRLHSGVPSRFSGSGSGTDYTLTISSLQPEDFATYYCQQGSTLPFTFGQGTKLEIKRTVAAPSVFIFPPSDEQLKSGTASVVCLLNNFYPREAKVQWKVDNALQSGNSQESVTEQDSKDSTYSLSSTLTLSKADYEKHKVYACEVTHQGLSSPVTKSFNRGEC
On to B6, for which, in assay [1], the Kd amounted to 2200 nM.

B7: X3-KE HM268-K8 (antibody)
chain 1: QVQLVQSGPEVKKPGASVKVVCKTSGYTFTSYYIQWLKQRPGQGLEWIGWIYFGDASTKYNEKFKGRVTMTADKSTSTAYMELRSLRSDDTAVYYCASYYGSYFDYWGQGTTVTVSSASTKGPSVFPLAPSSKSTSGGTAALGCLVKDYFPEPVTVSWNSGALTSGVHTFPAVLQSSGLYSLSSVVTVPSSSLGTQTYICNVNHKPSNTKVDKKVEPKSCDKTHTCPPCPAPELLGGPDVFLFPPKPKDTLMISRTPEVTCVVVDVSDEDPEVKFNWYVDGVEVHNAKTKPRAEQYNSTYRVVSVLTVLHQDWLNGKEYKCAVSNKALPAPIEKTISKAKGQPREPQVYTLPPSRDELTKNQVSLTCLVKGFYPSDIAVEWESNGQPENNYKTTPPVLDSDGSFFLYSKLTVDKSRWQQGNVFSCSVMHEALHNHYTQKSLSLSPGK
chain 2: DIQMTQSPSSLSASVGDRVTITCRASQDISNYLNWYQQKPDGTVKLLIYSTSRLHSGVPSRFSGSGSGTDYTLTISSLQPEDFATYYCQQGSTLPFTFGQGTKLEIKRTVAAPSVFIFPPSDEQLKSGTASVVCLLNNFYPREAKVQWKVDNALQSGNSQESVTEQDSKDSTYSLSSTLTLSKADYEKHKVYACEVTHQGLSSPVTKSFNRGEC
On to B7, for which the Kd in assay [1] came out at 1110 nM; in assay [2], 305 nM.

B8: X4-KS HM268-K8 (antibody)
chain 1: QVQLVQSGPEVKKPGASVKVVCKTSGYTFTSYYIQWLKQRPGQGLEWIGWIYFGDASTKYNEKFKGRVTMTADKSTSTAYMELRSLRSDDTAVYYCASYYGSYFDYWGQGTTVTVSSASTKGPSVFPLAPSSKSTSGGTAALGCLVKDYFPEPVTVSWNSGALTSGVHTFPAVLQSSGLYSLSSVVTVPSSSLGTQTYICNVNHKPSNTKVDKKVEPKSCDKTHTCPPCPAPELLGGPDVFLFPPKPKDTLMISRTPEVTCVVVDVGDEDPEVKFNWYVDGVEVHNAKTKPREEQYNSTYRVVSVLTVLHQDWLNGKEYKCAVSNKAYPAPEEKTISKAKGQPREPQVYTLPPSRDELTKNQVSLTCLVKGFYPSDIAVEWESNGQPENNYKTTPPVLDSDGSFFLYSKLTVDKSRWQQGNVFSCSVMHEALHNHYTQKSLSLSPGK
chain 2: DIQMTQSPSSLSASVGDRVTITCRASQDISNYLNWYQQKPDGTVKLLIYSTSRLHSGVPSRFSGSGSGTDYTLTISSLQPEDFATYYCQQGSTLPFTFGQGTKLEIKRTVAAPSVFIFPPSDEQLKSGTASVVCLLNNFYPREAKVQWKVDNALQSGNSQESVTEQDSKDSTYSLSSTLTLSKADYEKHKVYACEVTHQGLSSPVTKSFNRGEC
For the molecule B8, the values for the Kd in assay [1] and in assay [2] were 2550 nM and 881 nM, respectively.
